According to IntAct's records for PubMed 23376921:

B1: Transmembrane protein 59 (Homo sapiens), Q9BXS4 (parent)
chain: MAAPKGSLWVRTQLGLPPLLLLTMALAGGSGTASAEAFDSVLGDTASCHRACQLTYPLHTYPKEEELYACQRGCRLFSICQFVDDGIDLNRTKLECESACTEAYSQSDEQYACHLGCQNQLPFAELRQEQLMSLMPKMHLLFPLTLVRSFWSDMMDSAQSFITSSWTFYLQADDGKIVIFQSKPEIQYAPHLEQEPTNLRESSLSKMSYLQMRNSQAHRNFLEDGESDGFLRCLSLNSGWILTTTLVLSVMVLLWICCATVATAVEQYVPSEKLSIYGDLEFMNEQKLNRYPASSLVVVRSKTEDHEEAGPLPTKVNLAHSEI
B2: Transmembrane protein 59 (Homo sapiens), Q9BXS4 (parent)
chain: B1 chain
partner: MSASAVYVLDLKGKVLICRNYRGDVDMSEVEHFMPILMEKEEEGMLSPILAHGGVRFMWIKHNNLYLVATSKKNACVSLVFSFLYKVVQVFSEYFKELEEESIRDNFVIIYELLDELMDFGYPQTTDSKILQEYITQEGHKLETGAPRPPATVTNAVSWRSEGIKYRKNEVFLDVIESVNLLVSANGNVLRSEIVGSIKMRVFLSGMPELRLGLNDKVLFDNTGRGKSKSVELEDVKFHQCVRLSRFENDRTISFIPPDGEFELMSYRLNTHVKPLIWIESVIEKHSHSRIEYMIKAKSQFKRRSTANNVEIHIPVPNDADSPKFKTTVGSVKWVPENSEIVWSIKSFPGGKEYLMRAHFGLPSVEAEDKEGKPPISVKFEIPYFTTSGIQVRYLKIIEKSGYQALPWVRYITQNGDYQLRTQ

Variants of: B1
Details: with ATG16L1, Q676U5
ATG16L1, Q676U5, sequence (Q676U5 whole entry): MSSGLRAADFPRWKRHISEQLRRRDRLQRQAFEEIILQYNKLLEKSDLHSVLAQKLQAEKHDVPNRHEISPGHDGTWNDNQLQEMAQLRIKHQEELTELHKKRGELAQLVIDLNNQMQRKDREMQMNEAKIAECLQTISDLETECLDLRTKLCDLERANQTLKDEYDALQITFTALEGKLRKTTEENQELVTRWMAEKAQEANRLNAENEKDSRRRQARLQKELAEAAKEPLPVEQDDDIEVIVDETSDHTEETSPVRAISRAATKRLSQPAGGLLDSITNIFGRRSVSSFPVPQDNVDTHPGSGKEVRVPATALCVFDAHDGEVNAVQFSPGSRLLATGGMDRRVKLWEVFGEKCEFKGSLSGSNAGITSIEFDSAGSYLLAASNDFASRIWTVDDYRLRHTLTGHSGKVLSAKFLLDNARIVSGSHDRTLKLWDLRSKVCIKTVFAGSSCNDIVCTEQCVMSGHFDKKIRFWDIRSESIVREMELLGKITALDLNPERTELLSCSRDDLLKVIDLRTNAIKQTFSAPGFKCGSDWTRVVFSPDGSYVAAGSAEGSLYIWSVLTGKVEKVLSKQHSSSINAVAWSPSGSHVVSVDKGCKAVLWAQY

Variant	effect of a mutation on the interaction
MAAPKGSLWVRTQLGLPPLLLLTMALAGGSGTASAEAFDSVLGDTASCHRACQLTYPLHTYPKEEELYACQRGCRLFSICQFVDDGIDLNRTKLECESACTEAYSQSDEQYACHLGCQNQLPFAELRQEQLMSLMPKMHLLFPLTLVRSFWSDMMDSAQSFITSSWTFYLQADDGKIVIFQSKPEIQYAPHLEQEPTNLRESSLSKMSYLQMRNSQAHRNFLEDGESDGFLRCLSLNSGWILTTTLVLSVMVLLWICCATVATAVEQAVPSAKLSIAGDAEFMNEQKLNRYPASSLVVVRSKTEDHEEAGPLPTKVNLAHSEI [Y268A;E272A;Y277A;L280A]	disrupting interaction

Variants of: B1
Details: with ATG16L1, Q676U5
Remark: another data set of the same source

Variant	effect of a mutation on the interaction
MAAPKGSLWVRTQLGLPPLLLLTMALAGGSGTASAEAFDSVLGDTASCHRACQLTYPLHTYPKEEELYACQRGCRLFSICQFVDDGIDLNRTKLECESACTEAYSQSDEQYACHLGCQNQLPFAELRQEQLMSLMPKMHLLFPLTLVRSFWSDMMDSAQSFITSSWTFYLQADDGKIVIFQSKPEIQYAPHLEQEPTNLRESSLSKMSYLQMRNSQAHRNFLEDGESDGFLRCLSLNSGWILTTTLVLSVMVLLWICCATVATAVEQAVPSAKLSIAGDAEFMNEQKLNRYPASSLVVVRSKTEDHEEAGPLPTKVNLAHSEI [Y268A;E272A;Y277A;L280A]	disrupting interaction

Variants of: B1
Details: with ATG16L1, Q676U5
Remark: another data set of the same source

Variant	effect of a mutation on the interaction
MAAPKGSLWVRTQLGLPPLLLLTMALAGGSGTASAEAFDSVLGDTASCHRACQLTYPLHTYPKEEELYACQRGCRLFSICQFVDDGIDLNRTKLECESACTEAYSQSDEQYACHLGCQNQLPFAELRQEQLMSLMPKMHLLFPLTLVRSFWSDMMDSAQSFITSSWTFYLQADDGKIVIFQSKPEIQYAPHLEQEPTNLRESSLSKMSYLQMRNSQAHRNFLEDGESDGFLRCLSLNSGWILTTTLVLSVMVLLWICCATVATAVEQAVPSAKLSIAGDAEFMNEQKLNRYPASSLVVVRSKTEDHEEAGPLPTKVNLAHSEI [Y268A;E272A;Y277A;L280A]	disrupting interaction

Variants of: B1
Details: with ATG16L1, Q676U5
Remark: another data set of the same source

Variant	effect of a mutation on the interaction
MAAPKGSLWVRTQLGLPPLLLLTMALAGGSGTASAEAFDSVLGDTASCHRACQLTYPLHTYPKEEELYACQRGCRLFSICQFVDDGIDLNRTKLECESACTEAYSQSDEQYACHLGCQNQLPFAELRQEQLMSLMPKMHLLFPLTLVRSFWSDMMDSAQSFITSSWTFYLQADDGKIVIFQSKPEIQYAPHLEQEPTNLRESSLSKMSYLQMRNSQAHRNFLEDGESDGFLRCLSLNSGWILTTTLVLSVMVLLWICCATVATAVEQAVPSAKLSIAGDAEFMNEQKLNRYPASSLVVVRSKTEDHEEAGPLPTKVNLAHSEI [Y268A;E272A;Y277A;L280A]	disrupting interaction

Variants of: B1
Details: with ATG16L1, Q676U5
Remark: another data set of the same source

Variant	effect of a mutation on the interaction
MAAPKGSLWVRTQLGLPPLLLLTMALAGGSGTASAEAFDSVLGDTASCHRACQLTYPLHTYPKEEELYACQRGCRLFSICQFVDDGIDLNRTKLECESACTEAYSQSDEQYACHLGCQNQLPFAELRQEQLMSLMPKMHLLFPLTLVRSFWSDMMDSAQSFITSSWTFYLQADDGKIVIFQSKPEIQYAPHLEQEPTNLRESSLSKMSYLQMRNSQAHRNFLEDGESDGFLRCLSLNSGWILTTTLVLSVMVLLWICCATVATAVEQAVPSAKLSIAGDAEFMNEQKLNRYPASSLVVVRSKTEDHEEAGPLPTKVNLAHSEI [Y268A;E272A;Y277A;L280A]	disrupting interaction

Variants of: B1
Details: with ap2m1_human AP2M1, Q96CW1
ap2m1_human AP2M1, Q96CW1, sequence (Q96CW1 whole entry): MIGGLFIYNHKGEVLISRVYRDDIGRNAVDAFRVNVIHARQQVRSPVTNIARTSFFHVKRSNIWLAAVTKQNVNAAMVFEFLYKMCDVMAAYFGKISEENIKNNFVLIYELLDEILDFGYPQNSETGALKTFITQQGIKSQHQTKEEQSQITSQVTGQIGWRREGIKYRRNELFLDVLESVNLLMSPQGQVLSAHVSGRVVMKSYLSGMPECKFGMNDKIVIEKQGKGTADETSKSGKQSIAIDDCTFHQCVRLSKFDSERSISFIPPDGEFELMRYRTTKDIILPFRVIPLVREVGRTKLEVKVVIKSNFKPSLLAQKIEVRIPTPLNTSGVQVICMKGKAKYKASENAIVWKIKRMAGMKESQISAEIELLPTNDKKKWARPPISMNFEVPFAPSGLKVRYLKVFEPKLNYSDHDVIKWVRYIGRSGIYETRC

Variant	effect of a mutation on the interaction
MAAPKGSLWVRTQLGLPPLLLLTMALAGGSGTASAEAFDSVLGDTASCHRACQLTYPLHTYPKEEELYACQRGCRLFSICQFVDDGIDLNRTKLECESACTEAYSQSDEQYACHLGCQNQLPFAELRQEQLMSLMPKMHLLFPLTLVRSFWSDMMDSAQSFITSSWTFYLQADDGKIVIFQSKPEIQYAPHLEQEPTNLRESSLSKMSYLQMRNSQAHRNFLEDGESDGFLRCLSLNSGWILTTTLVLSVMVLLWICCATVATAVEQAVPSAKLSIAGDAEFMNEQKLNRYPASSLVVVRSKTEDHEEAGPLPTKVNLAHSEI [Y268A;E272A;Y277A;L280A]	disrupting interaction

Variants of: B1
Details: with mlp3a_human MAP1LC3A

Variant	effect of a mutation on the interaction
MAAPKGSLWVRTQLGLPPLLLLTMALAGGSGTASAEAFDSVLGDTASCHRACQLTYPLHTYPKEEELYACQRGCRLFSICQFVDDGIDLNRTKLECESACTEAYSQSDEQYACHLGCQNQLPFAELRQEQLMSLMPKMHLLFPLTLVRSFWSDMMDSAQSFITSSWTFYLQADDGKIVIFQSKPEIQYAPHLEQEPTNLRESSLSKMSYLQMRNSQAHRNFLEDGESDGFLRCLSLNSGWILTTTLVLSVMVLLWICCATVATAVEQAVPSAKLSIAGDAEFMNEQKLNRYPASSLVVVRSKTEDHEEAGPLPTKVNLAHSEI [Y268A;E272A;Y277A;L280A]	disrupting interaction

Variants of: B1
Details: with ATG16L1, Q676U5
Remark: another data set of the same source

Variant	effect of a mutation on the interaction
MAAPKGSLWVRTQLGLPPLLLLTMALAGGSGTASAEAFDSVLGDTASCHRACQLTYPLHTYPKEEELYACQRGCRLFSICQFVDDGIDLNRTKLECESACTEAYSQSDEQYACHLGCQNQLPFAELRQEQLMSLMPKMHLLFPLTLVRSFWSDMMDSAQSFITSSWTFYLQADDGKIVIFQSKPEIQYAPHLEQEPTNLRESSLSKMSYLQMRNSQAHRNFLEDGESDGFLRCLSLNSGWILTTTLVLSVMVLLWICCATVATAVEQYVPSEKLSIAGDAEFMNEQKLNRYPASSLVVVRSKTEDHEEAGPLPTKVNLAHSEI [Y277A;L280A]	disrupting interaction

Variants of: B2
Details: with ap1m1_human AP1M1, Q9BXS5

Variant	effect of a mutation on the interaction
MAAPKGSLWVRTQLGLPPLLLLTMALAGGSGTASAEAFDSVLGDTASCHRACQLTYPLHTYPKEEELYACQRGCRLFSICQFVDDGIDLNRTKLECESACTEAYSQSDEQYACHLGCQNQLPFAELRQEQLMSLMPKMHLLFPLTLVRSFWSDMMDSAQSFITSSWTFYLQADDGKIVIFQSKPEIQYAPHLEQEPTNLRESSLSKMSYLQMRNSQAHRNFLEDGESDGFLRCLSLNSGWILTTTLVLSVMVLLWICCATVATAVEQAVPSAKLSIAGDAEFMNEQKLNRYPASSLVVVRSKTEDHEEAGPLPTKVNLAHSEI [Y268A;E272A;Y277A;L280A]	disrupting interaction
